Measured values from the supplement of paper PMC12855868.

B1: library; numbered along this chain (parent)
chain: MAAAGGARLLRAASAVLGGPAGRWLHHAGSRAGSSGLLRNRGPGGSAEASRSLSVSARARSSSEDKITVHFINRDGETLTTKGKVGDSLLDVVVENNLDIDGFGACEGTLACSTCHLIFEDHIYEKLDAITDEENDMLDLAYGLTDRSRLGCQICLTKSMDNMTVRVPETVADARQSIDVGKTS

Variants of: B1
Assay: scaled log2 fold change in cell abundance, elesclomol vs control (0 = silent mean, 1 = nonsense mean) (scaled log2 ratio); higher = higher viability under elesclomol (loss of FDX1 cuproptosis function)
Settings: glucose 10 mM
[1] = with ABC1 FDX1 KO, elesclomol 5 nM, 14 days
[2] = with HEK293T FDX1 KO, elesclomol 40 nM, 11 days
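Note: variant abundance is its share of total variant reads in each endpoint sample, from next-generation sequencing of the integrated ORF PCR-amplified out of genomic DNA.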

Variant | scaled log2 fold change [1] | scaled log2 fold change [2]
MAAAGGARLLRAASAVLGGPAGRWLHHAGSRAGSSGLLRNRGPGGSAEASRSLSVSARARSSSEDKITVHFINRDGETLTTKGKVGDSLLDVVVENNLDIDGFGACEGTLACSTCHLIFEDEIYEKLDAITDEENDMLDLAYGLTDRSRLGCQICLTKSMDNMTVRVPETVADARQSIDVGKTS [H122E] | 0.137 | –
MAAAGGARLLRAASAVLGGPAGRWLHHAGSRAGSSGLLRNRGPGGSAEASRSLSVSARARSSSEDKITVHFINRDGETLTTKGKVGDSLLDVVVENNLDIDGFGACEGTLACSTCHLIFEDQIYEKLDAITDEENDMLDLAYGLTDRSRLGCQICLTKSMDNMTVRVPETVADARQSIDVGKTS [H122Q] | -0.0669 | 0.352
MAAAGGARLLRAASAVLGGPAGRWLHHAGSRAGSSGLLRNRGPGGSAEASRSLSVSARARSSSEDKITVHFINRDGETLTTKGKVGDSLLDVVVENNLDIDGFGACEGTLACSTCHLIFEDNIYEKLDAITDEENDMLDLAYGLTDRSRLGCQICLTKSMDNMTVRVPETVADARQSIDVGKTS [H122N] | 0.564 | 0.129
MAAAGGARLLRAASAVLGGPAGRWLHHAGSRAGSSGLLRNRGPGGSAEASRSLSVSARARSSSEDKITVHFINRDGETLTTKGKVGDSLLDVVVENNLDIDGFGACEGTLACSTCHLIFEDWIYEKLDAITDEENDMLDLAYGLTDRSRLGCQICLTKSMDNMTVRVPETVADARQSIDVGKTS [H122W] | 0.634 | -0.608
MAAAGGARLLRAASAVLGGPAGRWLHHAGSRAGSSGLLRNRGPGGSAEASRSLSVSARARSSSEDKITVHFINRDGETLTTKGKVGDSLLDVVVENNLDIDGFGACEGTLACSTCHLIFEDPIYEKLDAITDEENDMLDLAYGLTDRSRLGCQICLTKSMDNMTVRVPETVADARQSIDVGKTS [H122P] | -0.0781 | -0.564
MAAAGGARLLRAASAVLGGPAGRWLHHAGSRAGSSGLLRNRGPGGSAEASRSLSVSARARSSSEDKITVHFINRDGETLTTKGKVGDSLLDVVVENNLDIDGFGACEGTLACSTCHLIFEDRIYEKLDAITDEENDMLDLAYGLTDRSRLGCQICLTKSMDNMTVRVPETVADARQSIDVGKTS [H122R] | -0.313 | 0.00681
MAAAGGARLLRAASAVLGGPAGRWLHHAGSRAGSSGLLRNRGPGGSAEASRSLSVSARARSSSEDKITVHFINRDGETLTTKGKVGDSLLDVVVENNLDIDGFGACEGTLACSTCHLIFEDCIYEKLDAITDEENDMLDLAYGLTDRSRLGCQICLTKSMDNMTVRVPETVADARQSIDVGKTS [H122C] | -0.812 | –
MAAAGGARLLRAASAVLGGPAGRWLHHAGSRAGSSGLLRNRGPGGSAEASRSLSVSARARSSSEDKITVHFINRDGETLTTKGKVGDSLLDVVVENNLDIDGFGACEGTLACSTCHLIFEDLIYEKLDAITDEENDMLDLAYGLTDRSRLGCQICLTKSMDNMTVRVPETVADARQSIDVGKTS [H122L] | -0.634 | –
MAAAGGARLLRAASAVLGGPAGRWLHHAGSRAGSSGLLRNRGPGGSAEASRSLSVSARARSSSEDKITVHFINRDGETLTTKGKVGDSLLDVVVENNLDIDGFGACEGTLACSTCHLIFEDGIYEKLDAITDEENDMLDLAYGLTDRSRLGCQICLTKSMDNMTVRVPETVADARQSIDVGKTS [H122G] | -1.06 | –
MAAAGGARLLRAASAVLGGPAGRWLHHAGSRAGSSGLLRNRGPGGSAEASRSLSVSARARSSSEDKITVHFINRDGETLTTKGKVGDSLLDVVVENNLDIDGFGACEGTLACSTCHLIFEDVIYEKLDAITDEENDMLDLAYGLTDRSRLGCQICLTKSMDNMTVRVPETVADARQSIDVGKTS [H122V] | 0.297 | -0.437
MAAAGGARLLRAASAVLGGPAGRWLHHAGSRAGSSGLLRNRGPGGSAEASRSLSVSARARSSSEDKITVHFINRDGETLTTKGKVGDSLLDVVVENNLDIDGFGACEGTLACSTCHLIFEDTIYEKLDAITDEENDMLDLAYGLTDRSRLGCQICLTKSMDNMTVRVPETVADARQSIDVGKTS [H122T] | 0.191 | 0.139
MAAAGGARLLRAASAVLGGPAGRWLHHAGSRAGSSGLLRNRGPGGSAEASRSLSVSARARSSSEDKITVHFINRDGETLTTKGKVGDSLLDVVVENNLDIDGFGACEGTLACSTCHLIFEDSIYEKLDAITDEENDMLDLAYGLTDRSRLGCQICLTKSMDNMTVRVPETVADARQSIDVGKTS [H122S] | -0.554 | –
MAAAGGARLLRAASAVLGGPAGRWLHHAGSRAGSSGLLRNRGPGGSAEASRSLSVSARARSSSEDKITVHFINRDGETLTTKGKVGDSLLDVVVENNLDIDGFGACEGTLACSTCHLIFEDMIYEKLDAITDEENDMLDLAYGLTDRSRLGCQICLTKSMDNMTVRVPETVADARQSIDVGKTS [H122M] | 0.0412 | 0.368
MAAAGGARLLRAASAVLGGPAGRWLHHAGSRAGSSGLLRNRGPGGSAEASRSLSVSARARSSSEDKITVHFINRDGETLTTKGKVGDSLLDVVVENNLDIDGFGACEGTLACSTCHLIFEDKIYEKLDAITDEENDMLDLAYGLTDRSRLGCQICLTKSMDNMTVRVPETVADARQSIDVGKTS [H122K] | -0.152 | -0.221
MAAAGGARLLRAASAVLGGPAGRWLHHAGSRAGSSGLLRNRGPGGSAEASRSLSVSARARSSSEDKITVHFINRDGETLTTKGKVGDSLLDVVVENNLDIDGFGACEGTLACSTCHLIFEDFIYEKLDAITDEENDMLDLAYGLTDRSRLGCQICLTKSMDNMTVRVPETVADARQSIDVGKTS [H122F] | -0.949 | –
MAAAGGARLLRAASAVLGGPAGRWLHHAGSRAGSSGLLRNRGPGGSAEASRSLSVSARARSSSEDKITVHFINRDGETLTTKGKVGDSLLDVVVENNLDIDGFGACEGTLACSTCHLIFEDIIYEKLDAITDEENDMLDLAYGLTDRSRLGCQICLTKSMDNMTVRVPETVADARQSIDVGKTS [H122I] | 0.215 | 1.13
MAAAGGARLLRAASAVLGGPAGRWLHHAGSRAGSSGLLRNRGPGGSAEASRSLSVSARARSSSEDKITVHFINRDGETLTTKGKVGDSLLDVVVENNLDIDGFGACEGTLACSTCHLIFEDDIYEKLDAITDEENDMLDLAYGLTDRSRLGCQICLTKSMDNMTVRVPETVADARQSIDVGKTS [H122D] | -0.343 | –
MAAAGGARLLRAASAVLGGPAGRWLHHAGSRAGSSGLLRNRGPGGSAEASRSLSVSARARSSSEDKITVHFINRDGETLTTKGKVGDSLLDVVVENNLDIDGFGACEGTLACSTCHLIFEYHIYEKLDAITDEENDMLDLAYGLTDRSRLGCQICLTKSMDNMTVRVPETVADARQSIDVGKTS [D121Y] | -0.243 | 0.698
MAAAGGARLLRAASAVLGGPAGRWLHHAGSRAGSSGLLRNRGPGGSAEASRSLSVSARARSSSEDKITVHFINRDGETLTTKGKVGDSLLDVVVENNLDIDGFGACEGTLACSTCHLIFEWHIYEKLDAITDEENDMLDLAYGLTDRSRLGCQICLTKSMDNMTVRVPETVADARQSIDVGKTS [D121W] | 0.324 | -0.123
MAAAGGARLLRAASAVLGGPAGRWLHHAGSRAGSSGLLRNRGPGGSAEASRSLSVSARARSSSEDKITVHFINRDGETLTTKGKVGDSLLDVVVENNLDIDGFGACEGTLACSTCHLIFEVHIYEKLDAITDEENDMLDLAYGLTDRSRLGCQICLTKSMDNMTVRVPETVADARQSIDVGKTS [D121V] | 0.222 | 0.458
